Results from publication doi:10.1101/2023.07.05.547778 (bioRxiv, 2023).
Where no end group is shown, it is not given here. The star is where a group is joined. Biotin = O=C1N[C@H]2[C@H](CS[C@H]2CCCCC(=O)*)N1

Key:
[1] = molecular target: T1, biotin-GGS-APDTRPAPG (N-terminally biotinylated synthetic MUC1 VNTR peptide); assay: SPR
T1 chain: Biotin-GGSAPDTRPAPG

[2] = molecular target: T2, APDTRPAPG (synthetic MUC1 epitope peptide without N-terminal biotin or linker); assay: crystal structure
T2 chain: APDTRPAPG

B1: recombinant 139H2 Fab fragment (Fab, V domains shown)
VH: QVQLQQSGAELVKPGASVKLSCKASGYTFTNYYMYWVLQRPGQGLEWIGEINPSNGGTTFNEKFKNKATLTVDKSSSTAYMQLNSLTSEDSAVYYCTRSRYGNYVNYGMDYWGQGTSVTVSS
VL: DIVMSQSPSSLAVSVGEKVTMSCKSSQSLLYSNTQKNYLAWYQQKPGQSPKLLIYWASTRESGVPDRFTGSGSGTDFTLTISSVKAENLAVYYCQQYYRYPPTFGGGTKLELK
B1 was tested, and the Kd [1] was 4.5 µM and the binding result [2] was “binds”.
